Test results published in the DeepSol protein solubility set.

test: soluble on expression in E. coli; label from the status in PepcDB or PDB records

Sequence	soluble on expression in E. coli
QMPQPLAYAQALLAQFASLARAVNGAQLLGDFVRSLAELSGCELSQLYLLDATHKCLKMRAECLDGTLQPREAASLPVDYNGEQLLQFALCQNRVVCLGELSGSLHETSFLPTQSTPWQSLLCVPVVNHQQAVEGLLLCASRRHVDLQGFADSLGQFGSFALGQLNLLQRLHKPADEVRPAGITMPSVSGYG	not soluble
MSLSLRLPLAGGGLETFKLSAPRDFPARASGPMNRIAFSAAHVVADPLAASDPWLEAAIDWDHTIAYRQRLWDLGLGVAEAMDTAQRGMGLDWPTSLDLIRRSVEAAKAHGPEALVFSGAGTDHLAPEAARSLDDVIRAYEEQVAAVEKVGGRIILMASRALARIGTSAADYETVYGRILSQVREPVIIHWLGDMFDPALAGYWGTRDLDAAMDTAVAIINAHAAKVDGVKISLLDKDKEIAMRRRLDPAVRMYTGDDFNYAELVAGDAQGYSHALLGIFDAIAPAASAALTALAAGDEAGFHDILAPTVPLSRHIFRAPTRFYKTGVVFMAYLNGHQDHFTMVGGQESARSTLHLAELFRLADRAGLLTDPDLAVQRMRAVLAVRGVEAEGHHHHHH	soluble
MAHHHHHHMKSATMSATHALRDKWFVSFLPLLTADMVNTDYKGNWQLAAQERTQKLDWITSVEELWSTMNSLPKVHQLGMGSTLIFARNNKEPPSYEAYPNGSRIMINLLKPPTTDAGLELVLAVVMGETAAEKASDGKPVCDVLRIAARPSREHSEQIRVEVWLSDSTRSHAVAEFLAEAMRAKGLAANSYNIAEASFDAAAPGKDKKVLAASTMPSPSSPPMVKD	soluble
MSVEAEKAVLGTFLECPYLLKETVLTETHFSDPKHRKLFAAMKRIAQQGDEPDIVTLSTTEDVADFGGLSYLNEVSAFANETKFDQYEALVLDEWKEREKRRILVVAAQENWDIDKITTALTRLNEGRITDHHDISDLLHEVAEAPWTPTERKMGAPSGISELDKMLNGFNDGDSIILAARPSMGKTDFMIHFAKSVGWHGYLPIVFSLEMAADKIRDRLIGSIGGFNRMKLRNPYHDLSEEQKRMWIEVIGKASETRMQIFDGAGQSIADIRSKIRKAINRFPDRKPVVFIDYLTLIRPERYYGGNMHLQVTEISRAIKETAKEFSCPIITLAQLSRDVEKRSDKRPLMSDIRESGSIEQDADVVIFLYRDSYYNADADPRVAEVIVAKSRNGAVGTVRVSYNRNTGVIQDLYRP	not soluble
MGSDKIHHHHHHMTQSHDEPMQTMMWGGNAAFIEGLYESYLQDPSSVGAEWRSYFDGLRGGAQERVHSEVQQRFYELGQHRGPVTVQVTGGASGAQQAAGALVTAYRVYGHISARNNPLKLRGVPTVPELTPEFYGLSEADLSEQVQDSPFSGTLRDVIAQLQDTYCGAIGFEYNYLPANERAWFQERIEKGRGQGRYGLSQDERRRLMQKLNAAEGLELYLKNRYPGVKRFGLEGGESFIPLMDRIIQQAGGRYGVKEVVVGMAHRGRLNTLVNIFGKPSGTLFDEFDGKKKLSDDPDIAGDVKYHMGYSSDVRTPGGPMHLAMAFNPSHLEIVSPVVHGSVRARQDRRGDTERKQVLPITVHGDAAVSGQGVVMETLNFSRLRGFTTGGAIRIVINNQIGFTISDPRDSRSSRYCTDVAKIANAPVMHVNGDDPEAVAFCGDLALAYRQEFGKDVFIDLICFRRNGHNEGDEPRMTQPVMYREIDQHPGTRALYAAQLEKDGVLAAGEGDKLVNDFRDRLDRGETVVEEMENAEQSKLAVDWSGYTNTHWKDDEVATAVPREKLEALGLKLTQVPEGFRVHRTVERTVIKAREAMARGEQPLDWGMGEMLAYASLLDEGFGLRLDGQDSGRGTFVHRHAVLHNQDAVDPLSEEYMALAHLSPEQGRVEVIDSTLSEEAVLAFEYGYSTSEPKALVAWEAQFGDFANGAQAVVDQFLSAGESKWQRLSGLTMLLPHGYEGAGPEHSSARLERYLQLCAQKNMQVVVPSSAAQIFHLLRRQVLRPYRKPLIVMTPKSLLRNKHAMSPLSDLYDGVFHEVIGDAEVQNARRVVLSSGKLHWELTEAREKDKEGYAGTALVRLEQLYPFPAEQVKAELAKHPGAQVVWAQEEPENQGAWLMIWEDLEHCLQPGQTLTHASRPRSASTAVGYTSVHVREQAKVIADALGEPITRQDVDAQVPLTEEASAQG	not soluble
YVSTDGDDIYVGKNNKQNDYLTNKKAKKTHTWLHTKDIPGSHVVIFNDAPSDTTIKEAAMLAGYFSKAGNSGQIPVDYTLIKNVHK	not soluble
MKVLHMNAGAEEGGGKTHIISLLSQFSKEEVELMVFEEGAIAREARNLGIQVHVFTQSSRYDLSILSKIKAFINENQFDIVHTHGARANFYLSLLKKGIKAKWIMTVHSDPTLDFMKRGLKGWVFTKLNLRSFRKVDLFFAITENFKRNIIKLGVPEEKICTVYNGIEYDSNPAKPYDKSEFGIDEGIFTAIQVARLHPVKGHDILFEALQKIKIPNIKVLLLGDGPIEAELKEMVKQKGLEDKVMFLGFRIDSKELYASAHINLLTSYSESFPLVLLEAANQRLTSIATNVGDMKKLIVDDTYGWIVPIGDADSLANALENAYEKWLNGELEAMGNRLYTHASTHFSLKNLYEDTYNAYKTLLLK	not soluble
NEVDDMDTSDTQWGWFYLAECGKWHMFQPDTNSQCSVSSEDIEKSFKTNPCGSISFTTSKFSYKIDFAEMKQMNLTTGKQRLIKRAPFS	soluble
MKKPVYLTPEGYRRLQEELNHLKTVKRQEISADFEQALEEGDLRENAGYDEARRAMWQNEARIAQLEDLLSRAVIVENGSFDQVALGCQVELETETGERLSLAIVGSHEADIFSGKISDESPLGQALLGKKVGDVVEIRGKKGAQVYTILEIKPL	soluble
MGSSHHHHHHGGTGENLYFQGGSGMEKAIRDRVEKWKKEHTIDGKDATNEHAYESLNELILDGKKLTSIKNEEKELLKNFKNLERLCLNQTGIQTLENIPSIATLNVLELTDNHLSSVEVLKYIVQNFPNIKTLEIGGNHFKNINDFETLKELKNLVRLGVQFNPFADNPNYRKELFEFLPNVKIIDCYNKEGMEVLSSDEEEEEEYEEDNTLKNFYEADFKDEDDEDEEFVPNDNEDDDEDDELDDDLEDEDMEDLDKEDLDKEDYDIDTKETEGVNKDEKSNKRKQDALDNTNDMDLKKTKLE	soluble
GPGSMAELHVIGDLAFGEDFGGKSYFCAFEIVTGEHWRVVEGHTSGCTHIMESDSCGGIAWCFPIDVHYTMGSVEGWPKISMQVWSVDGYGRKDLAGYGVAFVPPPGGEEQEVNVETWKPCFWNPNFFIRLYENLREAVMGGGPVLCDKTMIHTNDERFKLRTISSGSVRLHLNVVARGMERLGVRCA	not soluble
MQDAACARRFVEAFGKRAYRRPLTPEEADAYAALFGQGSFREGVEATITHMLVSPNFLYRSELEHHHHHH	not soluble
MGSDKIHHHHHHMYPQRIEPQPGQESVWDYPRPPRLEDTSKHIQIIFNGVIIADTQNAKRVLETSHPPSYYIPPGDIKMEHLIPTPQSSFCEWKGLAGYYTIRVGDKEVQNAAWFYPNPTTAFASLRDHVAFYAHLMDACYVDGDQVEPQPGNFYGGWITKDVVGPFKGIPGSWGW	not soluble
GMANLLSTCTSESGNIQHISPQNAGWEYVGFDVWQLKAGESITLPSDERERCLVLVAGLASVKAADSFFYRIGQRMSPFERIPAYSVYLPHHTEAKVTAETDLELAVCSAPGFGELPVRLISPQEVGVEHRGKGRNQRLVHNILPDSQLADSLLVVEVYTNAGATSSWPAHKHDTAVEGQETYLEETYYHRFNPPQGFCLQRVYTDDRSLDECMAVYNRDVVKVPKGYHPVATIAGYDNYYLNVMAGPLRKWRFTWEENHAWINSPDYPR	soluble
MGSDKIHHHHHHMPNDTHTTQANVDPAEIAKFEAMAQSWWDPNGEFKPLHQLNPLRLNYIDSTAGGIFAKKVLDVGCGGGILSESMAKLGANVDGIDMGEAPLEVARLHALESGVMVNYHKTTAEAHSASHANHYQVVTCMEMLEHVPDPQSVIQACCDMVEPGGFVFFSTINRNMLSYVQAILGAEYLLKLLPIGTHDHSKFIRPSELMAMVDNTDLICKDALGISFNPLTSIFSYTKSLEVNYMIATQKMAD	not soluble
MDQIRQLAQWIKEANTIAVLTGAGMSTESGIPDFRSENGLYAQEDNVEYYLSEYYYKKDPVDFWRRFKRMFSLKMMGGFAPNDGHRFLRWLEEMGKTVTILTQNIDGLHTKAGSTNVIELHGTLQTATCPSCGNKYDLSFINRHEVPRCEKCQTIVKPDVVLFGGLVPRMEEAFAAAAASDLLLAMGTSLEVAPVNQIPFYVAAESPATRKVLINKTATRMDGMFDLVIYGGIGKTVASVRKQIQAE	soluble
MGSDKIHHHHHHMKYTFNEEKAFDIVAIGRACIDLNAVEYNRPMEETMTFSKYVGGSPANIAIGSAKLGLKAGFIGKIPDDQHGRFIESYMRKTGVDTTQMIVDQDGHKAGLAFTEILSPEECSILMYRDDVADLYLEPSEVSEDYIANAKMLLVSGTALAKSPSREAVLKAVQYAKKHQVKVVFELDYRPYTWQSSDETAVYYSLVAEQSDIVIGTRDEFDVMENRTGGSNEESVNHLFGHSADLVVIKHGVEGSYAYSKSGEVFRAQAYKTKVLKTFGAGDSYASAFIYGLVSGKDIETALKYGSASASIVVSKHSSSEAMPTAEEIEQLIEAQS	not soluble
RQLKVGQLVLSATPLPSLDEQARSLALVNLVRRKGIELLPWNPELRQWQARVDMLRQLDIQNGQAESKWPDLSDTSLLETLEK	not soluble
MGSDKIHHHHHHMTLLDKDLVSIQEVRTLVRRSKVAQEKLSKMSQEQIDKIVKAVVDAAFNNATKLAKMANEETGFGKWEDKVIKNTFASMGVYETLKNTKTIGIIGEDKEANTIDIATPVGVVAGLIPSTNPTSTVIYKTIISLKAGNTIVFSPHPNAKNCILETVNIISDAAIKAGAPEDSILCITNPSIVGTNELMKHKDTNLILATGGEAMVRAAYSSGTPAIGVGPGNGPAFIDKSANVKLAIKRIIDSKTFDNGVICASEQSIVIEKSMEETVLKELKNQGAYVLNEEESERLAKFILRANGTMNPQIVGKSVEVIANLADLTNVPKNTKVLVARENKVGHNVAYSREKLTPILAFYVEENVEAIMNRCREILLNEGAGHTFSMHVNDEELVKRFALNMPVSRILVNTPSALGGIGASTNLVPALTLGCGAIGGSSTSNNIGPLDLINVKRVAYGIKEIEELGRDKSQVEKSMFDSMDKEELINLLVQKLFKELA	not soluble
MSLVEKQSALESKARSWLIERGVEIDDIAELVLFLQQKYHPGLELDICRQNVEHVLRKREVQNAVLTGIQLDVMAEKGELVQPLQNIISADEGLYGVDEILALSIVNVYGSIGFTNYGYIDKVKPGILAKLNEHDGIAVHTFLDDIVGAIAAAAASRLAHSYHDDIVNEGGSHHHHHH	soluble
MDKKIIGIDLGGTTIKFAILTTDGVVQQKWSIETNILEDGKHIVPSIIESIRHRIDLYNMKKEDFVGIGMGTPGSVDIEKGTVVGAYNLNWTTVQPVKEQIESALGIPFALDNDANVAALGERWKGAGENNPDVIFITLGTGVGGGIVAAGKLLHGVAGCAGEVGHVTVDPNGFDCTCGKRGCLETVSSATGVVRVARHLSEEFAGDSELKQAIDDGQDVSSKDVFEFAEKGDHFALMVVDRVCFYLGLATGNLGNTLNPDSVVIGGGVSAAGEFLRSRVEKYFQEFTFPQVRNSTKIKLAELGNEAGVIGAASLALQFSKEK	soluble
